Reference: US20260184766A1 (priority 2022, published 2026)

Assays:
[1] = tested on: SARS CoV-2 "South African" B.1.351 variant Spike protein
[2] = tested on: pseudotyped virus carrying B.1.351 or "SA" variant (beta lineage) spike; assay type: cell-based, SARS-CoV-2; conditions: read-out: Virus Neutralization Pseudovirus (nM) Beta

Sequence	stability conferred to the knob sequence by N- and C-terminal residues, in words [1]	EC50 [2]
LVTCPDGYEHTCGCIGGCGCKRSACIGALCCQASLGGWLSDIP [G3-G]	improved stability	
TCPDGYEHTCGCIGGCGCKRSACIGALCCQASLGGWLSD [2G3 Knob]		15.7 ± 2.61 nM
GMTCPDGYEHTCGCIGGCGCKRSACIGALCCQASLGGWLSDRS [G3-Z]	improved stability	
SVTCPDGYEHTCGCIGGCGCKRSACIGALCCQASLGGWLSDYI [G3-E]	improved stability	
HWTCPDGYEHTCGCIGGCGCKRSACIGALCCQASLGGWLSDSF [2G3 knob HWSF]	improved stability	7.82 ± 1.59 nM
ISTCPDGYEHTCGCIGGCGCKRSACIGALCCQASLGGWLSDTV [2G3 knob ISTV]	improved stability	20.9 ± 7.95 nM
DYTCPDGYEHTCGCIGGCGCKRSACIGALCCQASLGGWLSDMP [G3-C]	improved stability	
